From the RNAGym collection of RNA variant scans (doi:10.1073/pnas.2313332121)

B1: TPR t1 (parent)
chain: GACCAAUCUGCCCUCAGAGCUCGAGAACAUCUUCGGAUGCAGAGGAGGCAGGCUUCGGUGGCGCGAUAGCGCCAACGUCCUCAACCUCCAAUGCAUCCCACCACAUGAUGAUGCCUGAAGAGCCUUGGUUUUUUG

Variants of: B1
Assay: polymerase ribozyme fitness, log enrichment relative to wild type (log ratio); higher = more active; in vitro selection for triplet polymerase activity
In short: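 In triplicate, a single round of in vitro selection was run on each mutant library, PCR-built and transcribed, covering one subunit of a heterodimeric triplet polymerase ribozyme. Frozen incubation at −7 °C followed annealing with a biotinylated primer, partner subunit and triplets, and extended constructs were then gel-excised, streptavidin-captured and taken through RT-PCR. Fitness is the logarithm of genotype enrichment over wild-type enrichment, from inverse-variance-weighted replicate averages of Illumina-sequenced inputs and outputs. […] only genotypes with ≥10 input reads and ≥1 read per output were kept.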

Point of comparison: C8G C11U G63U C124A, “polymerase ribozyme fitness (log ratio)” value 1.09. Against it:
- U7C A29G G63U U81A U132C — lower, -3.82
- C8G A90C A91U A95G — lower, -1.14
- U7A G60C C72U — lower, 0.796
- U7G G36C — lower, 0.162
- C8A U14C G93U — lower, -0.798
- U7A C12U A46U G58A C70A — lower, -1.97
- C8G C13A G52C U92A — lower, -3.15
- C8A C76U U87A U112A A121C U133G — within 0.2 log units, 0.984
- U7G U109C — lower, -3.87
- C8A C11U G17C — lower, -2.13
- U7G G17U C28U A90C U106A — lower, -2.82
- U7G C56A G57U C89A — lower, -0.967
- C8G C12U A68G G122A C123U — lower, -1.28
- C8G A18U G44U G47A C102A G120A A121C C124U — lower, -6.31
- U7G G23C C82U C86G G110C — lower, -7.53
- C8A A18C U21G — lower, -4.13
- U7A G113U — lower, -2.15
- U7G C40U C72A C86U G93U C102A U106A — lower, -5.6
- U7A A41G U92A — lower, -1.89
- C8G A118U — higher, 1.5
- C8A G48A C101G C115U — lower, -4.25
- C8A A46U A74U A100U C102U C115A — lower, -2.37
- U7G C72G — lower, 0.441
- U7G C72U — lower, 0.255
- C8A G60A — lower, -0.104
- U7G A37C A95C — lower, 0.483
- U7C A100U — lower, -0.808
- U7G G23A — lower, -4.28
- U7C G42U G47A — lower, -1.32
- C8A A43C G44A C53A C86U G93U — lower, -2.53
- U7C G93A U132C — lower, -0.396
- U7G C53G C115U U116G — lower, -0.555
- C8A C40U A103C — lower, -3.75
- U7C C12A C76G — lower, 0.0602
- U7G G61A C76A C94A G110C G117C — lower, -7.29
- U7G G42A U81A U109A U130C — lower, -5.79
- C8G A91U A95C — lower, -1.32
- C8A G48U U59G C73G A105C U112C G120A — lower, -2.35
- C8A U9G C94G — lower, -0.653
- U7C U14A A46U — lower, -2.65
- C8A G36U G42A C62U — lower, -2.62
- C8G A18U A111G G128A U132C — lower, -2.59
- C8G C12G A27U C64U — lower, -1.4
- C8G C12U C97G — lower, -3.16
- C8A C12U C40A — lower, -0.186
- U7C U106C — lower, -0.478
- U7C C28U C49U A50C G120A G122A — lower, -2.33
- U7G C49U C56U U78C C94U A111C — lower, -0.959
- U7G C88U — lower, -0.443
- C8G C11U C82A U112A — lower, 0.802
- C8A G135A — lower, -0.0375
- U7G C12A A43U C73A — lower, -1.44
- U7A C12G G17U A105G G120C — lower, -4.05
- U7C C12A C88A U96A C104U — lower, -1.43
- C8G A46C U81A C88U G113A — lower, -1.64
- U7C A16U C34A C49G — lower, -4.01
- C8G C15G — lower, -1.24
- C8G A43U C88G G110U G120U — lower, -4.09
- C8G C15A G39A G52C U59A C89A G117A — lower, -2.57
- U7A C49U C53U U59A C76A — lower, -0.656
- U7A C13U G19C G113U — lower, -1.96
- U7G A83U — lower, -0.221
- C8A C64A U112C U125A — lower, -5.5
- U7A A103U — lower, -4.28
- U7A C11A G77A U81G — lower, -1.65
- U7A C31U G60A — lower, -4.77
- C8A A16G A43C — lower, -1.35
- C8A C64G A111G A121C U129A — lower, -6.98
- U7G A16U A43U C49U C70A C89A U116G — lower, -4.88
- C8G A111U — lower, -1.64
- U7A G63U G77C U92G — lower, -5.12
- U7G C70A C72U G93C C115U — lower, -4.07
- C8G C12G C73U A83G G113C — lower, -2.3
- U7G C70G — lower, -2.23
- C8A C80G C82G C88A C114U — lower, -6.78
- U7G A29C C72A C82A G120C — lower, -0.586
- C8G A91G C115U — lower, -0.682
- C8G C13U C40G C124G — lower, 0.821
- C8A U78C — lower, 0.0167
- C8A C72A U81G G120U — lower, -0.73
- C8A U32A A90G — lower, -4.24
- U7A C72A G93C — lower, -0.463
